Measured values published in US20190359687A1 (Bayer, published 2019).
No end group written: not given here.

T1: human glycophorin A on human red blood cells or red blood cell membranes (human, UniProt P02724 20-150)
T1 construct: whole, on cells; also called hRBC; human RBC membranes
T1 sequence (looked up): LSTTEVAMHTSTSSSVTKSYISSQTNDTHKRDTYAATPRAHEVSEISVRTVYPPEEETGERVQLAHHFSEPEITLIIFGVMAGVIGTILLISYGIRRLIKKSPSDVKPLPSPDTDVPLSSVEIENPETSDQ

T2: GP11 peptide of the human GPA ectodomain (human, not fully specified (N-terminus))
T2 peptide: VYPPEEET

T3: GP16 peptide of the human GPA ectodomain (human, not fully specified (N-terminus))
T3 peptide: EETGERVQ

T4: GP10 peptide of the human GPA ectodomain (human, not fully specified (N-terminus))
T4 peptide: TVYPPEEE

T5: GP14 peptide of the human GPA ectodomain (human, not fully specified (N-terminus))
T5 peptide: PEEETGER

T6: GP9 peptide of the human GPA ectodomain (human, not fully specified (N-terminus))
T6 peptide: RTVYPPEE

T7: GP13 peptide of the human GPA ectodomain (human, not fully specified (N-terminus))
T7 peptide: PPEEETGE

T8: GP7 peptide of the human GPA ectodomain (human, not fully specified (N-terminus))
T8 peptide: SVRTVYPP

T9: GP8 peptide of the human GPA ectodomain (human, not fully specified (N-terminus))
T9 peptide: VRTVYPPE

T10: GP15 peptide of the human GPA ectodomain (human, not fully specified (N-terminus))
T10 peptide: EEETGERV

T11: GP12 peptide of the human GPA ectodomain (human, not fully specified (N-terminus))
T11 peptide: YPPEEETG


Experiments:
[1] = target: T1, human glycophorin A on human red blood …; assay: Fab on intact human RBC, unbound Fab by ELISA; 20 min after 200-fold dilution
Experimental: (§1) The binding of affinity matured Fab antibodies to intact human RBC was also measured. Human RBC were isolated from fresh anti-coagulated normal human blood by centrifugation through a ficol gradient and washing in PBS buffer. RBC diluted to 1/10th of normal hematocrit were incubated with purified Fab antibodies at a final concentration of 7 ug/ml for 1 hour at room temperature on a rotating shaker after which a sample was taken and the RBC were pelleted by centrifugation and the supernatant was collected. The remaining RBC suspension was diluted 200-fold in PBS buffer and incubated for a total of 2 hours at room temperature on a rotating shaker and samples were removed at 0, 5 min, 20 min, 1 h and 2 h and the RBC pelleted and the supernatant collected. The amount of Fab in the supernatants was then measured using an ELISA assay and the results used to calculate the percentage of the input Fab that was bound to the RBC. […] The percentage that remains bound after 200-fold dilution of the RBC suspension is an indication of the overall strength of the binding to human RBC.

[2] = target: T1, human glycophorin A on human red blood …; assay: SPR (Biacore), Fab on human RBC membranes;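 further: human RBC membranes captured on an L1 sensor chip, Fab fragments passed over as analyte, binding kinetics read by surface plasmon resonance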
Experimental: Kinetic analysis of the antibody binding to human red blood cell membranes was also performed using surface plasmon resonance (SPR) using a Biacore instrument. In this assay membranes prepared from human red blood cells were attached to a L1 sensor matrix and antibodies were flowed over the RBC membranes.
The binding kinetics of the affinity matured Fab antibodies was also measured.

[3] = target: T2, GP11 peptide of the human GPA ectodomain; assay: ELISA, Fab 0.5 ug/ml on biotin-peptide on streptavidin plate
Text: (§2) These peptides were attached to the surface of a streptavidin coated plate via a biotin moiety that was present at the N-terminus of each peptide.

[4] = target: T3, GP16 peptide of the human GPA ectodomain; assay: as above
Text: as §2

[5] = target: T4, GP10 peptide of the human GPA ectodomain; assay: as above
Text: as §2

[6] = target: T5, GP14 peptide of the human GPA ectodomain; assay: as above
Text: as §2

[7] = target: T6, GP9 peptide of the human GPA ectodomain; assay: as above
Text: as §2

[8] = target: T7, GP13 peptide of the human GPA ectodomain; assay: as above
Text: as §2

[9] = target: T12, GP5 peptide of the human GPA ectodomain (human, N-terminal biotin); assay: as above
T12 construct: Residues 42 to 61 of the human GPA extracellular domain
Text: as §2

[10] = target: T8, GP7 peptide of the human GPA ectodomain; assay: as above
Text: as §2

[11] = target: T9, GP8 peptide of the human GPA ectodomain; assay: as above
Text: as §2

[12] = target: T10, GP15 peptide of the human GPA ectodomain; assay: as above
Text: as §2

[13] = target: T11, GP12 peptide of the human GPA ectodomain; assay: as above
Text: as §2

[14] = target: T1, human glycophorin A on human red blood …; assay: Fab 7 ug/ml on intact human RBC, unbound Fab by ELISA; pre-dilution
Experimental: as §1

[15] = target: T1, human glycophorin A on human red blood …; assay: Fab on intact human RBC, unbound Fab by ELISA; 5 min after 200-fold dilution
Experimental: as §1

[16] = target: T2, GP11 peptide of the human GPA ectodomain; assay: ELISA, Fab 0.05 ug/ml on biotin-peptide on streptavidin plate
Text: as §2

[17] = target: T3, GP16 peptide of the human GPA ectodomain; assay: as above
Text: as §2

[18] = target: T4, GP10 peptide of the human GPA ectodomain; assay: as above
Text: as §2

[19] = target: T5, GP14 peptide of the human GPA ectodomain; assay: as above
Text: as §2

[20] = target: T6, GP9 peptide of the human GPA ectodomain; assay: as above
Text: as §2

[21] = target: T7, GP13 peptide of the human GPA ectodomain; assay: as above
Text: as §2

[22] = target: T12, GP5 peptide of the human GPA ectodomain; assay: as above
Text: as §2

[23] = target: T8, GP7 peptide of the human GPA ectodomain; assay: as above
Text: as §2

[24] = target: T9, GP8 peptide of the human GPA ectodomain; assay: as above
Text: as §2

[25] = target: T10, GP15 peptide of the human GPA ectodomain; assay: as above
Text: as §2

[26] = target: T11, GP12 peptide of the human GPA ectodomain; assay: as above
Text: as §2

[27] = target: T1, human glycophorin A on human red blood …; assay: Fab on intact human RBC, unbound Fab by ELISA; 120 min after 200-fold dilution
Experimental: as §1

| percentage of input antibody bound [1] [%] | kon [2] [M⁻¹ s⁻¹] | binding signal in ELISA (relative light units) [3] [RLU] | binding signal in ELISA (relative light units) [4] [RLU] | binding signal in ELISA (relative light units) [5] [RLU] | binding signal in ELISA (relative light units) [6] [RLU] | binding signal in ELISA (relative light units) [7] [RLU] | binding signal in ELISA (relative light units) [8] [RLU] | binding signal in ELISA (relative light units) [9] [RLU] | binding signal in ELISA (relative light units) [10] [RLU] | binding signal in ELISA (relative light units) [11] [RLU] | binding signal in ELISA (relative light units) [12] [RLU] | binding signal in ELISA (relative light units) [13] [RLU] | percentage of input antibody bound [14] [%] | percentage of input antibody bound [15] [%] | binding signal in ELISA (relative light units) [16] [RLU] | binding signal in ELISA (relative light units) [17] [RLU] | binding signal in ELISA (relative light units) [18] [RLU] | binding signal in ELISA (relative light units) [19] [RLU] | binding signal in ELISA (relative light units) [20] [RLU] | Binder | further results |
| --- | --- | --- | --- | --- | --- | --- | --- | --- | --- | --- | --- | --- | --- | --- | --- | --- | --- | --- | --- | --- | --- |
| 88 | 8.58e+06 | 1 | 0 | 38 | 0 | 169 | -1 | 6990 | 1 | 3370 | 0 | 0 | 91 | 89 | 0 | -1 | 7 | -1 | 7 | TPP-7790, affinity matured 6C12 Fab (Fab, V domains shown, Tested as Fab with a 6xHIS tag) VH: EVQLVQSGAEVKKPGASVKVSCKASGYTFTTYAIHWVRQAPGQGLEWMGYINPSSGYTRYNPKFKHRVTMTRDKSTSTAYMELRSLRSDDTAVYYCWTGTRDYWGQGTTVTVSS VL: DIQLTQSPSFLSASVGDRVTITCRASSSVRYIYWFQQKPGKAPKLLIYATSFLQSGVPSRFSGSGSGTEYTLTISSLQPEDFATYYCHQRNSFPYTFGQGTKLEIK | binding signal in ELISA (relative light units) [21]: 0 RLU; binding signal in ELISA (relative light units) [22]: 2880 RLU; binding signal in ELISA (relative light units) [23]: 0 RLU; binding signal in ELISA (relative light units) [24]: 83 RLU; binding signal in ELISA (relative light units) [25]: -1 RLU; binding signal in ELISA (relative light units) [26]: -1 RLU; percentage of input antibody bound [27]: 88% |
| 4 | 7.14e+06 | 0 | -1 | 0 | -1 | 1 | -1 | 6680 | 0 | 1 | -1 | -1 | 93 | 28 | -1 | 0 | 0 | -1 | -1 | TPP-5906, humanized and germlined 6C12 Fab; VL: (S24R, A26S, S49A, P54Q, F95Y); VH: (I48M, D56G, D66G, L70M, T72R) (Fab, V domains shown, The text says that a 6xHIS tag is present on the Fabs in the peptide ELISA; it is not in the printed chains) VH: EVQLVQSGAEVKKPGASVKVSCKASGYTFTTYTIHWVRQAPGQGLEWMGYINPSSGYTRYNPKFKGRVTMTRDKSTSTAYMELRSLRSDDTAVYYCQTGTRDYWGQGTTVTVSS VL: DIQLTQSPSFLSASVGDRVTITCRASSSVSYIYWFQQKPGKAPKLLIYATSTLQSGVPSRFSGSGSGTEYTLTISSLQPEDFATYYCHQRNSFPYTFGQGTKLEIKR | Kd [2]: 707 pM; koff [2]: 0.00504 s⁻¹; binding signal in ELISA (relative light units) [21]: -1 RLU; binding signal in ELISA (relative light units) [22]: 2000 RLU; binding signal in ELISA (relative light units) [23]: -1 RLU; binding signal in ELISA (relative light units) [24]: -1 RLU; binding signal in ELISA (relative light units) [25]: -1 RLU; binding signal in ELISA (relative light units) [26]: -1 RLU; percentage of input antibody bound [27]: 8% |
